Assay results as given in patent US6969760.

Target: T1, wild type EPO receptor (EPOR) expressed in DA3(EPOR) cells or 3T3 fibroblasts, P14753
T1 chain: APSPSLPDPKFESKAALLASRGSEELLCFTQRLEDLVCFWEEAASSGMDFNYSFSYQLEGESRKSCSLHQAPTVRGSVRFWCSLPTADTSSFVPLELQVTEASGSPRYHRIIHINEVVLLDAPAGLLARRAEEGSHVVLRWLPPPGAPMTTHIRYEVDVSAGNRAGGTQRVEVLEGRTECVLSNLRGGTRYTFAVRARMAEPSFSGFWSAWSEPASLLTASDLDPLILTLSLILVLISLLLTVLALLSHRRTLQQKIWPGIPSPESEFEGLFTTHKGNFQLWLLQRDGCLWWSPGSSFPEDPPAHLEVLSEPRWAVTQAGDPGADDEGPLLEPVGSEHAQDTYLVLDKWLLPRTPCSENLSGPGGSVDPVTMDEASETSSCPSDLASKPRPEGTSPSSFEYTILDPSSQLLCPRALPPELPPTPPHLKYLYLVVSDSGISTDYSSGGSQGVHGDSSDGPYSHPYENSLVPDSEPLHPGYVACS

B1: murine Jak2 protein tyrosine kinase (protein)
chain: MGMACLTMTEMEATSTSPVHQNGDIPGSANSVKQIEPVLQVYLYHSLGQAEGEYLKFPSGEYVAEEICVAASKACGITPVYHNMFALMSETERIWYPPNHVFHIDESTRHDILYRIRFYFPHWYCSGSSRTYRYGVSRGAEAPLLDDFVMSYLFAQWRHDFVHGWIKVPVTHETQEECLGMAVLDMMRIAKEKDQTPLAVYNSVSYKTFLPKCVRAKIQDYHILTRKRIRYRFRRFIQQFSQCKATARNLKLKYLINLETLQSAFYTEQFEVKESARGPSGEEIFATIIITGNGGIQWSRGKHKESETLTEQDVQLYCDFPDIIDVSIKQANQECSNESRIVTVHKQDGKVLEIELSSLKEALSFVSLIDGYYRLTADAHHYLCKEVAPPAVLENIHSNCHGPISMDFAISKLKKAGNQTGLYVLRCSPKDFNKYFLTFAVERENVIEYKHCLITKNENGEYNLSGTKRNFSNLKDLLNCYQMETVRSDSIIFQFTKCCPPKPKDKSNLLVFRTNGISDVQISPTLQRHNNVNQMVFHKIRNEDLIFNESLGQGTFTKIFKGVRREVGDYGQLHKTEVLLKVLDKAHRNYSESFFEAASMMSQLSHKHLVLNYGVCVCGEENILVQEFVKFGSLDTYLKKNKNSINILWKLGVAKQLAWAMHFLEEKSLIHGNVCAKNILLIREEDRRTGNPPFIKLSDPGISITVLPKDILQERIPWVPPECIENPKNLNLATDKWSFGTTLWEICSGGDKPLSALDSQRKLQFYEDKHQLPAPKWTELANLINNCMDYEPDFRPAFRAVIRDLNSLFTPDYELLTENDMLPNMRIGALGFSGAFEDRDPTQFEERHLKFLQQLGKGNFGSVEMCRYDPLQDNTGEVVAVKKLQHSTEEHLRDFEREIEILKSLQHDNIVKYKGVCYSAGRRNLRLIMEYLPYGSLRDYLQKHKERIDHKKLLQYTSQICKGMEYLGTKRYIHRDLATRNILVENENRVKIGDFGLTKVLPQDKEYYKVKEPGESPIFWYAPESLTESKFSVASDVWSFGVVLYELFTYIEKSKSPPVEFMRMIGNDKQGQMIVFHLIELLKSNGRLPRPEGCPDEIYVIMTECWNNNVSQRPSFRDLSFGWIKSGTV
EPO-induced tyrosine phosphorylation of Jak2 in 3T3 fibroblasts expressing EPOR (Jak2 immunoprecipitation, 4G10 blot): Following stimulation of the cells with EPO, a 130 kDa band, co-migrating with Jak2, was readily detected by a monoclonal antibody against phosphotyrosine (4G10)
